Consider 2 substances from US20250177373A1.

In test [1] the target is gp41-inter (HIV-1; HIV-1 clade A isolate 92UG037.8). Nature of the test: fluorescence anisotropy/polarization, FITC-labeled 2F5 Fab held at 50 nM, gp41-inter titrated; the concentration read is that of gp41-inter.
Test [2] has the same target. As to the kind of experiment: fluorescence anisotropy/polarization; FITC-4E10 Fab, gp41-inter titrated. (Fluorescence polarisation rises when a labelled molecule tumbles more slowly, as on binding a larger partner.)
For test [3] the target is unchanged. As to the kind of experiment: fluorescence anisotropy/polarization, FITC-labeled 4E10 Fab, gp41-inter titrated; the concentration read is that of gp41-inter.

On to 2F5 Fab, for which the EC50 (read off the curve) in test [1] was 0.01 µM.

Consider 4E10 Fab, for which, in test [2], the Kd is 0.023 µM. For the same substance, the EC50 (read off the curve) in test [3] was found to be 0.02 µM.

By EC50 (read off the curve) is commonly meant the concentration needed to bring the measured effect to its halfway point. A lower EC50 (read off the curve) goes with a more potent agent. As a reminder, the Kd is a measure of binding affinity in units of concentration.
